Measured values taken from paper PMC2120816.

Target: thyroglobulin of normal mice (mouse (endogenous in thyroid tissue)) (UniProt O08710)
Test: native gel or EMSA

Q: With “thyroglobulin of normal mice, O08710 21-2766” as the substance, how does the stoichiometry N read?
A: 2
